The data set concerns the target T1, Dpo4 (SsoDpo4, Y-family DNA polymerase) (Sulfolobus solfataricus, UniProt Q97W02 1-352).
T1 sequence: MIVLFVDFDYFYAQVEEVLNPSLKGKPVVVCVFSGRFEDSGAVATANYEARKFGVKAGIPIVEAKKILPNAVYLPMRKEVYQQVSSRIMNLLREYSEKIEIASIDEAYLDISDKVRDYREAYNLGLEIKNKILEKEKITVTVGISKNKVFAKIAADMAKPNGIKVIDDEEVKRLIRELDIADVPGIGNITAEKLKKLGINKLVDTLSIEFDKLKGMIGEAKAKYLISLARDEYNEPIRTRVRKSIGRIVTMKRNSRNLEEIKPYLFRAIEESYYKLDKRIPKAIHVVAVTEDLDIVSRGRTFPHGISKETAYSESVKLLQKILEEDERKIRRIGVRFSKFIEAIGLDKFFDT
Nature of the data set: fluorescence anisotropy.

B1: 37-nt hairpin primer-template, 5'-Cy3 (structured_DNA)
DNA: TTTTTTTTTTCCCGGGCCGGCGTTTCGCCGGCCCGGG
As usually defined, the Kd is the constant that tells how readily two partners part at equilibrium. Higher therefore signals weaker binding. As for B1, binding was characterised by a dissociation constant (Kd) of 435 ± 116 nM.

These data come from article PMC3477848 (Biochemistry, 2012).
